This passage reports Km, kcat and kcat/Km results from article PMC8230527, “Structural and Biochemical Characterization of a Dye-Decolorizing Peroxidase from Dictyostelium discoideum” (International Journal of Molecular Sciences, 2021).

Holding throughout (test): purified protein
What all share (type): biochemical, Dictyostelium discoideum

Substrate in data set [1]: CCn1c(=NN=c2sc3cc(S(=O)(=O)O)ccc3n2CC)sc2cc(S(=O)(=O)O)ccc21
The conditions noted are these: 1 mM H2O2, 50 mM sodium acetate pH 4.0, 150 mM NaCl, 25 °C.

Substrate in data set [2]: Nc1c(S(=O)(=O)O)cc(Nc2ccc(S(=O)(=O)O)c(Nc3nc(Cl)nc(Cl)n3)c2)c2c1C(=O)c1ccccc1C2=O
The conditions noted are these: 1 mM H2O2, 50 mM sodium citrate pH 3.0, 150 mM NaCl, 25 °C.

Substrate in data set [3]: COc1ccc(CO)cc1OC
The conditions noted are these: 1 mM H2O2, 50 mM sodium acetate pH 4.0, 150 mM NaCl, 25 °C.

B1: Dictyostelium DyPA (Dictyostelium discoideum) (protein)
chain: MAQSTVLPMHCLYGIFLEGNLKIQKNDQEGLKKFKDNIKKFTLELDEIDKISPQSRIGGAICFSSDIWDTVTKKISKPKELKSVNTLSSYMPGTSQRDILIHIISDRMDTCFKLAQDTMRNFGEDQLDIKQEIHGFRRVEERDLTDFIDGTENPDGDELRTQYGLVAAGQPNEFGSYVFTQRYVHNLKKWYPEPLSVQQDTVGRTKKDSIEIPRDKRPITSHVSRTDLSENGKDLKIVRQSLPYGQITGEKGLMFIAYACSLHNIEKQLQSMFGQLDGKHDLLLKYTTPVTGSFYFAPSKKELLEL
notes: recombinant from E. coli Rosetta(DE3)pLysS, heme-reconstituted with hemin; homodimer
For the protein B1, in “purified protein [1]”, the Km came to 4.1 ± 0.4 mM, the kcat is 89.9 ± 4.3 s⁻¹ and the kcat/Km was found to be 21900 M⁻¹ s⁻¹. Also, in “purified protein [2]”, the Michaelis constant (Km) was 0.04 ± 0.01 mM, the catalytic constant (kcat) is 5.2 ± 0.38 s⁻¹ and the kcat/Km was found to be 130000 M⁻¹ s⁻¹. Further, in the data set “purified protein [3]”, the Km is reported as 0.166 ± 0.058 mM, the kcat was determined as 0.000338 ± 3.5e-05 s⁻¹ and the kcat/Km stood at 2.03 M⁻¹ s⁻¹.
